Reference: the Human Domainome abundance scans (Beltran et al. 2025)
± gives the uncertainty stated by the source.

B1: E3 ubiquitin-protein ligase TRIM36, residues 208 to 252; numbered along this chain, Q9NQ86 (parent)
chain: KILMCPEHETERINMYCELCRRPVCHLCKLGGNHANHRVTTMSSA

Variants of: B1
Assay: abundance fitness (aPCA) (normalised: wild type 0, dead -1); higher = more abundant; growth selection in yeast, the domain comes from the species named
Conditions: Homo sapiens

| Variant | abundance fitness |
| --- | --- |
| C25A | -0.603 ± 0.05 |
| I2A | -0.165 ± 0.047 |
| C25W | -1.1 ± 0.091 |
| N33G | 0.028 ± 0.046 |
| E9Q | -0.062 ± 0.073 |
| N33R | -0.066 ± 0.052 |
| V39C | -0.079 ± 0.071 |
| G32A | 0.028 ± 0.053 |
| N14S | -0.041 ± 0.088 |
| N14R | -0.149 ± 0.071 |
| R22F | -0.113 ± 0.069 |
| L27E | -0.058 ± 0.05 |
| C25L | -0.81 ± 0.059 |
| R38F | -0.121 ± 0.1 |
| T40E | -0.04 ± 0.066 |
| N14Q | 0.018 ± 0.06 |
| L19V | 0.039 ± 0.061 |
| E9A | -0.043 ± 0.053 |
| E11S | -0.132 ± 0.097 |
| S44N | -0.038 ± 0.07 |
| K1G | -0.273 ± 0.058 |

| Variant | abundance fitness |
| --- | --- |
| A35T | -0.068 ± 0.056 |
| S43N | -0.042 ± 0.096 |
| E18L | -0.196 ± 0.052 |
| R12K | -0.365 ± 0.28 |
| R22S | 0.047 ± 0.069 |
| M42Q | 0.067 ± 0.068 |
| P23H | -0.113 ± 0.067 |
| L27A | 0.052 ± 0.05 |
| I2M | -0.068 ± 0.062 |
| T40Q | -0.014 ± 0.066 |
| E18Q | -0.08 ± 0.073 |
| N36D | -0.005 ± 0.077 |
| H37T | -0.208 ± 0.064 |
| T40M | -0.318 ± 0.097 |
| C5E | -0.655 ± 0.093 |
| P23C | -0.2 ± 0.092 |
| R22L | -0.029 ± 0.075 |
| L19F | -0.287 ± 0.18 |
| I2R | -0.243 ± 0.055 |
| S43M | -0.13 ± 0.074 |
| T10V | -0.161 ± 0.059 |

| Variant | abundance fitness |
| --- | --- |
| R12L | -0.034 ± 0.071 |
| G32K | -0.129 ± 0.084 |
| K29M | -0.057 ± 0.057 |
| E9P | 0.075 ± 0.061 |
| H34D | -0.326 ± 0.066 |
| P23V | -0.081 ± 0.063 |
| R21L | -0.084 ± 0.052 |
| N33M | -0.015 ± 0.064 |
| A35V | -0.011 ± 0.05 |
| C5P | -1.06 ± 0.076 |
| C28N | -0.546 ± 0.41 |
| C28W | -0.91 ± 0.072 |
| K29C | -0.07 ± 0.074 |
| P6G | -0.14 ± 0.046 |
| C28G | -0.608 ± 0.05 |
| C5G | -0.744 ± 0.052 |
| M15V | -0.309 ± 0.27 |
| C28I | -0.613 ± 0.09 |
| R22A | 0.01 ± 0.052 |
| K1C | -0.573 ± 0.17 |
| C5L | -0.929 ± 0.064 |

| Variant | abundance fitness |
| --- | --- |
| C17T | -0.796 ± 0.15 |
| M4N | -0.101 ± 0.13 |
| G32S | -0.045 ± 0.05 |
| P23G | 0.006 ± 0.055 |
| E7W | -0.315 ± 0.065 |
| G31K | -0.091 ± 0.083 |
| E7K | -0.085 ± 0.06 |
| H34I | -0.738 ± 0.15 |
| E11R | -0.602 ± 0.081 |
| I2F | -0.001 ± 0.12 |
| P23T | 0.019 ± 0.08 |
| L3D | 0.07 ± 0.059 |
| C17W | -1.16 ± 0.15 |
| L3S | -0.007 ± 0.048 |
| R38Q | 0.024 ± 0.078 |
| R22I | -0.227 ± 0.11 |
| H37D | -0.217 ± 0.063 |
| K1N | -0.101 ± 0.11 |
| E9L | -0.04 ± 0.052 |
| N36S | -0.052 ± 0.051 |
